Results: article PMC5843810, “18th European Symposium on Radiopharmacy and Radiopharmaceuticals” (EJNMMI Radiopharmacy and Chemistry, 2016)
Primed or numbered codes have the meaning given here. Side-chain parts run from the residue outwards. [ ]: non-standard residue; d: D form. PEG7′ = not defined here; Pra = C#CC[C@H](N)C(=O)O; Tz = not defined here

Experiments:
[1] = molecular target: integrin αvβ3 receptor of αvβ3-positive melanoma tumors in C57BL/6 mice (UniProt P43406)
[2] = molecular target: RGD-recognising integrin receptors
[3] = molecular target: RGD-recognising integrins; assay: standard binding assay on cells (IC50); U-87 MG and SKOV-3 cancer models; the competing ligand is not named
[4] = molecular target: T1, αvβ3 integrin receptors on tumor cells, P06756; assay: real-time quantification of cell binding with Ligand Tracer; 68Ga-labelled cyclo-RGD peptides on tumor cells (AR42J and U87MG named); details: remark: other sources report otherwise
T1 chain 1: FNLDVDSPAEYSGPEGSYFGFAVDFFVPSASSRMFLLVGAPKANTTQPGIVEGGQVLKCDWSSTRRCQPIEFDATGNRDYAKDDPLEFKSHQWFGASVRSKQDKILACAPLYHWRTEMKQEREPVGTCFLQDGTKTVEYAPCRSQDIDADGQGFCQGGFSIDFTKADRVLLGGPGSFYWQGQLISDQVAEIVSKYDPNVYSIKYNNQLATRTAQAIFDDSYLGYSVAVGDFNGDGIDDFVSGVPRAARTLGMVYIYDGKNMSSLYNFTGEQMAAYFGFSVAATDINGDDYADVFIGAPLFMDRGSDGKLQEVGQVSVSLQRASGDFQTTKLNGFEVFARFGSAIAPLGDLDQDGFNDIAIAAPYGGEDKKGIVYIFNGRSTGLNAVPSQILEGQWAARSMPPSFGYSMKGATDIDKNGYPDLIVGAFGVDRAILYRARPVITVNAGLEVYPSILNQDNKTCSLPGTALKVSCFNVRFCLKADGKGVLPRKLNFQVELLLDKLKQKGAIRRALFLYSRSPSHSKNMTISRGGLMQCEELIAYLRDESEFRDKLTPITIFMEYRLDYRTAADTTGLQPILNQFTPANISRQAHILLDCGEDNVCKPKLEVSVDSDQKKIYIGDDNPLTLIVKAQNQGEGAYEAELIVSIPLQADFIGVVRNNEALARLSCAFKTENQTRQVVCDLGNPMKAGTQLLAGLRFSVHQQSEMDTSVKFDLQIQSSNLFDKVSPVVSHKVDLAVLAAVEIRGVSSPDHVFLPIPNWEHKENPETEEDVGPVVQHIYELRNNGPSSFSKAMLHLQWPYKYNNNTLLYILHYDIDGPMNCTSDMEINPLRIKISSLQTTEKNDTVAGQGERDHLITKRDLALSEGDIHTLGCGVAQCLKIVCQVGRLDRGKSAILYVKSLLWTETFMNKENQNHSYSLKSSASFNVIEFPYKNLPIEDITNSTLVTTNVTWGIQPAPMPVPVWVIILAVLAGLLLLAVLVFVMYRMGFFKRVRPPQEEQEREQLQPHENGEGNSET
T1 chain 2: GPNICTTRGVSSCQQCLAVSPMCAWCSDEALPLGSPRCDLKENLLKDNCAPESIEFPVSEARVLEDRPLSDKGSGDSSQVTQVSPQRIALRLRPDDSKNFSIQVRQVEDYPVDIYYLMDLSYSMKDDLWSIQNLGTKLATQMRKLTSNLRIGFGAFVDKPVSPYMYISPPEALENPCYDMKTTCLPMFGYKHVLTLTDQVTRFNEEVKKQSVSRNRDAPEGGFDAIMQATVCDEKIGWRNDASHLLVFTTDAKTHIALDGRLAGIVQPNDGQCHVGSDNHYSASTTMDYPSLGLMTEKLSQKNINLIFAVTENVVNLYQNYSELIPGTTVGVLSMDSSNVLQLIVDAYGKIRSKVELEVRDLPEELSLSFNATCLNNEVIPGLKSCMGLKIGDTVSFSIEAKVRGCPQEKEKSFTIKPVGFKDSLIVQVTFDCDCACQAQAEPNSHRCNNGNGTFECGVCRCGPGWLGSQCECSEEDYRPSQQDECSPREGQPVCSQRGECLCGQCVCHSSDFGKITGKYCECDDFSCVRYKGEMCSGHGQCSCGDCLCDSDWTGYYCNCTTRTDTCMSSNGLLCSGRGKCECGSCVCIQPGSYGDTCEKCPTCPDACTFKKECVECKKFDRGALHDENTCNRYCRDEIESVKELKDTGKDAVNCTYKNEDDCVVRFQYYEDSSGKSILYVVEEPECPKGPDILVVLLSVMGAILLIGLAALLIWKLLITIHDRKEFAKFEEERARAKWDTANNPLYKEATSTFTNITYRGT

B1: 99mTc(CO)3-Pra-Tz-CH2-cRGDfK (peptide)
peptide: cyclo(RGD[dF]K)
modifications: not fully specified (residue 5); also: 99mTc(CO)3 complex
A tumor uptake in C57BL/6 mice bearing αvβ3-positive melanoma tumors, maximum at 30 min p.i. (30, 60, 180 min); reduced to 50-60% by cold cRGDfK peptide [1] of 3.01 %ID/g was found for B1 in this work.

B2: 99mTc(CO)3-Pra-Tz-PEG7-cRGDfK (peptide)
peptide: cyclo(RGD[dF]K([PEG7′-Tz-Pra]))
modifications: reading uncertain; also: 99mTc(CO)3 complex
A tumor uptake in C57BL/6 mice bearing αvβ3-positive melanoma tumors, maximum at 30 min p.i. (30, 60, 180 min); reduced to 50-60% by cold cRGDfK peptide [1] of 4.11 %ID/g was found for B2 in this work.

B3: FPyPEGCBT-c(RGDfK) (peptide)
peptide: cyclo(RGD[dF]K)
modifications: also: cysteine-modified, cysteine site not given here, FPyPEGCBT condensed with that cysteine, 18F in the tracer
A tumour uptake 1 h after injection in mice bearing subcutaneous SKOV-3 tumours [2] of 2.4 %ID/g, a tumour uptake 1 h after injection in mice bearing subcutaneous U-87 MG tumours [2] of 2.9 %ID/g and an IC50 [3] of 3080 nM were found for B3 in this work.

B4: 68Ga-DOTA-E-[c(RGDfK)2] (peptide)
peptide: cyclo(RGD[dF]K)
modifications: also: two c(RGDfK) copies on a Glu core, DOTA chelator, 68Ga label
A retention on cells [4] of under 58% was found for B4 in this work.

B5: control c(RGDfV) peptide (peptide)
peptide: cyclo(RGD[dF]V)
An IC50 [3] of 600 nM was found for B5 in this work.
